Data as given in US20050064507A1, “Determining kinase specificity” (priority 2003, published 2005).

Target: T1, PKC-theta (Homo sapiens, UniProt Q04759)
T1 construct: His-tag; made in house; host or cells: baculovirus-infected Sf9 cells
Assay: In vitro kinase assay: peptide phosphorylation by PKC-theta
Type: biochemical
From the text: A second strategy for validation of the PSSM derived from the methods described herein is to identify sequences represented in the human proteome that have low percentiles derived from the PSSM, to synthesize peptides that have those sequences, and test the efficiency of phosphorylation of those peptides by the kinase of interest. […] The results are shown for individual peptides (FIG. 11, panel A) or for groups of peptides aggregated by percentile prediction (FIG. 11, panel B). As with the testing described above with prospectively chosen peptides, the percentile scores are highly predictive of phosphorylation by the relevant kinase.
An example of the purification procedure used for production of active kinase is as follows. A preparation of PKC-theta was prepared using a Gateway expression construct containing PKC-theta that was expressed in baculovirus, which were used to infect Sf9 cells. The cell pellet from a liter of baculovirus-infected Sf9 cells was resuspended in 20 volumes (60 ml) of extraction buffer (20 mM Na phosphate buffer pH 7.5, 500 mM NaCl, 5 mM pyrophosphate, 10% glycerol, 10 mM imidazole, 1 mM PMSF), sonicated twice for one minute (1 cm tip at 60% power and 50% duty cycle) and cell disruption was verified microscopically. The sample was adjusted to five mM MgCl2 and treated with one U benzonase/ml for an additional 20 minute on ice. The sample was clarified by centrifugation in a JA-20 rotor at 15K for 30 min at 4° C., filtered through a […] filter and applied at 0.5 ml/min to a one ml chelating sepharose column previously charged with nickel and equilibrated with extraction buffer. The column was washed with extraction buffer at one ml/min to baseline and eluted in a 20 ml gradient (20-500 mM imidazole in extraction buffer) into one ml fractions that were analyzed by SDS-PAGE. Fractions with the highest concentration of protein were pooled, were dialyzed twice against one liter of 20 mM Na PO4 pH 7.5, 50 mM NaCl buffer. The kinase pool was dialyzed twice against 20 mM HEPES pH 7.4, 100 mM NaCl, 2 mM EDTA, 5 mM DTT, 0.05% Triton-X-100. After dialysis, the sample was adjusted to 50% glycerol and quick-frozen in a dry ice/ethanol bath.
The conditions of the kinase assay and the amount of active kinase used varied with the kinase and with the accuracy needed. For a typical experiment, 5-20 ng of kinase was used per well and each peptide pool was assayed in duplicate wells. Note that the absolute amount of kinase used was not usually a critical parameter, because the desired information related to specificity of the kinase not its absolute activity, and robustness of the assay depends on comparisons of the same amount of kinase on different peptides. The combination of kinase concentration and assay duration was modified to assure that the stoichiometry of peptide phosphorylation never exceeded 5%. The choice of kinase buffer depended on the kinase being analyzed. For studies of PKC, 100 mM HEPES, 0.05% Triton-X100, 1 mM CaCl2, 20 mM MgCl2, 0.2 mg/ml phosphatidyl serine (Avanti Polar Lipids), PMA 100 ng/ml was typically used. The lipid stock was prepared by transferring 3 mg phosphatidyl serine into iced mixture of 450 μl water plus 50 μl of 10% Triton-X100, sonicating 10 times on ice for 1 sec each.
The kinase reaction mixture was assembled by sequential addition to a tube held on ice of: 5 μl peptide (100 μM for final concentration of 10 μM), 15 μl of kinase (typically 5 ng/well, in appropriate kinase buffer), 30 μl of ATP (1 uCi/well of ^32P-gamma ATP in a stock of 167 μM cold ATP in the kinase buffer; for final concentration for 100 μM ATP). The mixture was rapidly warmed to desired reaction temperature (30° C. for PKC) and incubated for the desired duration (usually 10 minutes). The kinase assay was terminated by transfer to 4° C. water batch, and rapid addition of an equal volume (50 μl) of stop solution [0.1M ATP+0.1M EDTA in water, pH 8]. […]

T1 sequence (Q04759 whole entry): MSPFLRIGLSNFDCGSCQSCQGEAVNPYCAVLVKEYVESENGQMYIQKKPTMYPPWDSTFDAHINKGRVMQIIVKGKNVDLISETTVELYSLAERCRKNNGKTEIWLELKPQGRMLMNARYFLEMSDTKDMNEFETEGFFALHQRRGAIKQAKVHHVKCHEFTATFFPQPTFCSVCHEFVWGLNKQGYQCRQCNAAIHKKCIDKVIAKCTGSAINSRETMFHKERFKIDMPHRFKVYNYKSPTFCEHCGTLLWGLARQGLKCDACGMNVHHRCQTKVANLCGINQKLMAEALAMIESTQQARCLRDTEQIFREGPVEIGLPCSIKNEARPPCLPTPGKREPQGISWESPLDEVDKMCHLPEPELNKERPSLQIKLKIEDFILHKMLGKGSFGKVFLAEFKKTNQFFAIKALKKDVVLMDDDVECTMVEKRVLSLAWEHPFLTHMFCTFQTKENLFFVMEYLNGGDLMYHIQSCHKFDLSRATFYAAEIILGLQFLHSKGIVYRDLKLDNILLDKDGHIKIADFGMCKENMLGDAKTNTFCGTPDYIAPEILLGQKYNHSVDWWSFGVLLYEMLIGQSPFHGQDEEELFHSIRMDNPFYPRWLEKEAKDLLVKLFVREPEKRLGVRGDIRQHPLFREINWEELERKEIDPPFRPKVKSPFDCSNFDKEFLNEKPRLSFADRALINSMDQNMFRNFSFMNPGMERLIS

| Substance | phosphorylation by PKC theta (peptide concentration 1 uM) | phosphorylation by PKC theta (peptide concentration 10 uM) | Peptide phosphorylation by PKC-theta (Table 8) |
| --- | --- | --- | --- |
| 114 (KKKKRASFKRKSSKKG) [compound 114] | 100 | 86 |  |
| 115 (NRKKKRTSFKRKA) [compound 115] | 89 | 77 |  |
| 116 (EEGTFRSSIRRLSTRRR) [compound 116] | 83 | 78 |  |
| 117 (NRKKKRTSFKRKA) [compound 117] | 84 | 78 |  |
| 118 (RPQNTLKASKKKKRASFKRK) [compound 118] | 67 | 52 |  |
| 119 (KKRFSFKKSFKLSGFSFKKN) [compound 119] | 69 | 28 |  |
| 120 (AKRRRLSSLRASTSK) [compound 120] | 51 | 51 |  |
| 121 (LRRRSLRRSNSISKSPGP) [compound 121] | 51 | 57 | 57 |
| 122 (RAITSTLASSFKRRR) [compound 122] | 66 | 42 |  |
| 123 (KKRFSFKKSFKLSGFSFKKN) [compound 123] | 47 | 32 |  |
| 124 (PRLIRRGSKKRPAR) [compound 124] | 53 | 57 |  |
| 125 (PLKEKKRERKTSSKSSVRKR) [compound 125] | 39 | 100 |  |
| 126 (KAIKAIEGGQKFARKSTRRS) [compound 126] | 46 | 45 |  |
| 127 (SQVQKQRSAGSFKRNSIKKI) [compound 127] | 45 | 58 |  |
| 128 (QQVDRERPHVRRRRGTFKRS) [compound 128] | 41 | 59 |  |
| 129 (VQRHRSMRKTFARYLSFRRD) [compound 129] | 48 | 25 |  |
| 130 (EYLERRASRRRAV) [compound 130] | 38 | 44 |  |
| 131 (WKGKRRSKARKKRK) [compound 131] | 53 | 35 |  |
| 132 (GFLNEPLSSKSQRRKSLKLK) [compound 132] | 34 | 40 |  |
| 133 (LEKRGMLGKRPRRKSSRRKK) [compound 133] | 46 | 53 |  |
| 134 (RSRSRSRSKSKDKRKSRKRS) [compound 134] | 36 | 16 |  |
| 135 (KKKFRTPSFLKKSKK) [compound 135] | 30 | 36 |  |
| 136 (RARRDSLKKIEIW) [compound 136] | 42 | 28 |  |
| 137 (PSKSPSKKKKKFRTPSFLKK) [compound 137] | 40 | 19 |  |

| Substance | phosphorylation by PKC theta (peptide concentration 1 uM) | phosphorylation by PKC theta (peptide concentration 10 uM) | Peptide phosphorylation by PKC-theta (Table 8) |
| --- | --- | --- | --- |
| 138 (EYLERRASRRRAV) [compound 138] | 34 | 39 |  |
| 139 (RPTPGDGEKRSRIKKSKKRK) [compound 139] | 31 | 17 |  |
| 140 (TELEGGFSRQRKRKLSFRRR) [compound 140] | 25 | 35 |  |
| 141 (VTDSQKRREILSRRPSYRKI) [compound 141] | 29 | 28 |  |
| 142 (ERHVAQKKSRLRRRASQLKI) [compound 142] | 28 | 37 |  |
| 143 (VRYTPYTISPYNRKGSFRKQ) [compound 143] | 25 | 27 |  |
| 144 (LSSMFGTLPRKSRKGSVRKQ) [compound 144] | 35 | 22 |  |
| 145 (ISDFGLAKKLAVGRHSFSRR) [compound 145] | 27 | 25 |  |
| 146 (QAQRQIKRGAPPRRSSIRNA) [compound 146] | 33 | 34 |  |
| 147 (RDIRQSPKRGFLRSASLGRR) [compound 147] | 20 | 69 |  |
| 154 (KKFFTQGWAGWRKKTSFRKP) [compound 154] | 34 | 21 |  |
| 155 (RWDKRRWRKIPKRPGSVHRT) [compound 155] | 23 | 26 |  |
| 156 (SAQITIPKDGQKRKKSLRKK) [compound 156] | 18 | 23 |  |
| 157 (PSPSNETPKKKKKRFSFKKS) [compound 157] | 20 | 23 |  |
| 158 (VQMTWSYPDEKNKRASVRRR) [compound 158] | 19 | 23 |  |
| 159 (LYARLARAYRRSQRASFKRA) [compound 159] | 21 | 17 |  |
| 160 (PFEVVWYKDKRQLRSSKKYK) [compound 160] | 19 | 25 |  |
| 161 (KYKAFIRIPIPTRRHTFRRQ) [compound 161] | 19 | 23 |  |
| 162 (KKKFSFKKPFKLSGLSFKRN) [compound 162] | 14 | 13 |  |
| 163 (PPRTPGWHQLQPRRVSFRGE) [compound 163] | 14 | 11 |  |
| 164 (TEGKMARVAWKGKRRSKARK) [compound 164] | 24 | 20 |  |
| 165 (TEEKSKKRKKKHRKNSRKHK) [compound 165] | 16 | 14 |  |
| 166 (MAQIERGEARIQRRISIKKA) [compound 166] | 13 | 13 |  |
| 167 (GLPAPGEDKSIYRRGSRRWR) [compound 167] | 12 | 14 |  |
